Test results published in the RNAGym collection of RNA variant scans (doi:10.7554/elife.80360).

B1: CPEB3 Ribozyme (parent)
chain: GGGGGCCACAGCAGAAGCGUUCACGUCGCGGCCCCUGUCAGAUUCUGGUGAAUCUGCGAAUUCUGCUGU

Variants of: B1
Assay: self-cleavage, relative activity (ratio to wild type); higher = more cleavage; co-transcriptional
For C24U U53C, the self-cleavage was 0.53. C24U A40U gave a self-cleavage of 0.317. In the case of C24U A40G, the self-cleavage is reported as 0.738. Variant C24U U44C has a self-cleavage of 0.633. In the case of C24U U44G, the self-cleavage is reported as 0.703. In the case of C24U U44A, the self-cleavage is reported as 0.687. With C24U C32G the self-cleavage was 0.211. For C24U C32A, the self-cleavage was 0.414. For C24U G56C, the self-cleavage was 0.307. For C24U G56U, the self-cleavage was 0.528. For C24U G56A, the self-cleavage was 0.61. For C24U C34A, the self-cleavage was 0.263. In the case of C24U C34G, the self-cleavage is reported as 0.283. For C24U C34U, the self-cleavage was 0.858. Work on G25A C33G yielded a self-cleavage of 0.206. Variant G25A C33U has a self-cleavage of 0.276. Work on G25A C33A yielded a self-cleavage of 0.206. G25A A52U gave a self-cleavage of 0.213. G25A A52G showed a self-cleavage of 0.193. Work on G25A A52C yielded a self-cleavage of 0.253. Work on G25A G30A yielded a self-cleavage of 0.155. G25A G30C gave a self-cleavage of 0.219. G25A G28C showed a self-cleavage of 0.131. Work on C24U C29U yielded a self-cleavage of 0.143. C24U C29G gave a self-cleavage of 0.246. C24U C29A showed a self-cleavage of 0.292. G25A U26G gave a self-cleavage of 0.148. In the case of G25A U26C, the self-cleavage is reported as 0.297. In the case of C24U G48A, the self-cleavage is reported as 0.815. In the case of C24U G48U, the self-cleavage is reported as 0.889. For C24U G48C, the self-cleavage was 0.86. C24U U61A gave a self-cleavage of 0.431. For C24U U61G, the self-cleavage was 0.397. C24U U61C gave a self-cleavage of 0.353. Variant C24U C45A has a self-cleavage of 0.743. With C24U C45G the self-cleavage was 0.776. Variant G25A A42C has a self-cleavage of 0.161. For G25A A42U, the self-cleavage was 0.178. Variant G25A A42G has a self-cleavage of 0.203. Work on C24U A51C yielded a self-cleavage of 0.782. G25A U46A showed a self-cleavage of 0.267. C24U A52C gave a self-cleavage of 0.791. Work on G25A A40U yielded a self-cleavage of 0.153. In the case of G25A A40C, the self-cleavage is reported as 0.178. For C24G U64G, the self-cleavage was 0.338. For C24G U64C, the self-cleavage was 0.315. Work on G25A G48U yielded a self-cleavage of 0.236. Work on G25A G48A yielded a self-cleavage of 0.208. With C24U U43A the self-cleavage was 0.679. C24U U43C gave a self-cleavage of 0.691. In the case of C24U U43G, the self-cleavage is reported as 0.418. G25A G56U showed a self-cleavage of 0.2. Variant C24U G68C has a self-cleavage of 0.928. For C24U G68U, the self-cleavage was 0.96. G25A G37C showed a self-cleavage of 0.119. For G25A G37A, the self-cleavage was 0.187. Variant G25A G37U has a self-cleavage of 0.199. C24U C33U showed a self-cleavage of 0.856. C24U C33G showed a self-cleavage of 0.294. C24U C33A showed a self-cleavage of 0.465. G25A C32G gave a self-cleavage of 0.131. Work on G25A C32U yielded a self-cleavage of 0.255. C24U C57G showed a self-cleavage of 0.24. In the case of C24U C57U, the self-cleavage is reported as 0.244. Variant C24U has a self-cleavage of 0.844. Variant G25A U36G has a self-cleavage of 0.176. In the case of G25A U36C, the self-cleavage is reported as 0.292. For G25A U36A, the self-cleavage was 0.184. With C24U U46C the self-cleavage was 0.714. Variant C24U U46A has a self-cleavage of 0.852. C24U G58C gave a self-cleavage of 0.742. Work on C24U G58U yielded a self-cleavage of 0.879. In the case of G25A C45A, the self-cleavage is reported as 0.208. Work on C24U C27U yielded a self-cleavage of 0.193. In the case of C24U C27G, the self-cleavage is reported as 0.189. Variant C24U G50C has a self-cleavage of 0.795. With C24U G50A the self-cleavage was 0.838. G25A gave a self-cleavage of 0.202. In the case of G25A C66A, the self-cleavage is reported as 0.196. For G25A C66U, the self-cleavage was 0.244. C24U G30U gave a self-cleavage of 0.199. C24U G30A showed a self-cleavage of 0.389. C24U U62C gave a self-cleavage of 0.505. C24U U62A showed a self-cleavage of 0.441. G25A G65A gave a self-cleavage of 0.189. G25A C57U showed a self-cleavage of 0.205. With G25A C57A the self-cleavage was 0.223. With C24U U67C the self-cleavage was 0.833. C24U U67G showed a self-cleavage of 0.761. Work on G25A C27U yielded a self-cleavage of 0.169. Work on G25A C27G yielded a self-cleavage of 0.208. G25A C27A showed a self-cleavage of 0.162. G25A G47A gave a self-cleavage of 0.175. With C24U C63G the self-cleavage was 0.328. G25A G68A gave a self-cleavage of 0.222. G25A G68C showed a self-cleavage of 0.195. Variant G25A G68U has a self-cleavage of 0.224. With G25A U43A the self-cleavage was 0.154. Work on G25A U43G yielded a self-cleavage of 0.119. Work on G25A U43C yielded a self-cleavage of 0.288. For G25A C54G, the self-cleavage was 0.208. For G25A C54A, the self-cleavage was 0.203. In the case of C24U G65U, the self-cleavage is reported as 0.352. For C24U G65A, the self-cleavage was 0.39. C24U U69A gave a self-cleavage of 0.895. Variant C24U U69G has a self-cleavage of 0.909. G25A G58A gave a self-cleavage of 0.22. For G25A G58C, the self-cleavage was 0.159. G25A G58U gave a self-cleavage of 0.218. Variant G25A A60U has a self-cleavage of 0.188. With G25A A60G the self-cleavage was 0.171. For G25A G31U, the self-cleavage was 0.197. With G25A G31C the self-cleavage was 0.147. With G25A G31A the self-cleavage was 0.219. Work on C24U A42U yielded a self-cleavage of 0.654. C24U A42G showed a self-cleavage of 0.631. Variant G25A U44G has a self-cleavage of 0.11. In the case of G25A U44A, the self-cleavage is reported as 0.138. Variant G25A G41C has a self-cleavage of 0.172. For G25A G41U, the self-cleavage was 0.197. Work on C24U C35U yielded a self-cleavage of 0.579. With G25A C35G the self-cleavage was 0.18. With G25A C35U the self-cleavage was 0.152. Work on C24U A60C yielded a self-cleavage of 0.254. Variant C24U G41A has a self-cleavage of 0.394. Work on C24U G41U yielded a self-cleavage of 0.461. C24U C66A gave a self-cleavage of 0.331. With C24U C66U the self-cleavage was 0.734. For C24U C66G, the self-cleavage was 0.346. Variant C24U G47U has a self-cleavage of 0.909. In the case of C24U G47A, the self-cleavage is reported as 0.869. In the case of C24U G37U, the self-cleavage is reported as 0.251. Variant G25A U38C has a self-cleavage of 0.123. In the case of G25A U38A, the self-cleavage is reported as 0.149. G25A U38G showed a self-cleavage of 0.153. In the case of C24U U49G, the self-cleavage is reported as 0.762. G25A C39G showed a self-cleavage of 0.16. G25A C39A gave a self-cleavage of 0.237. G25A C39U gave a self-cleavage of 0.229. Work on C24G U67A yielded a self-cleavage of 0.368. Variant C24U C54U has a self-cleavage of 0.808. C24U C54A gave a self-cleavage of 0.561. With C24U G31U the self-cleavage was 0.271. In the case of C24U G31A, the self-cleavage is reported as 0.316. For G25A C34A, the self-cleavage was 0.196. For G25A C34U, the self-cleavage was 0.185. C24U U36G showed a self-cleavage of 0.182. G25A C63U showed a self-cleavage of 0.166. Variant G25A C29U has a self-cleavage of 0.163. G25A C29G gave a self-cleavage of 0.216. In the case of G25A C29A, the self-cleavage is reported as 0.181. In the case of C24U U38A, the self-cleavage is reported as 0.418. Variant C24U U38C has a self-cleavage of 0.582. G25A A51G gave a self-cleavage of 0.22. G25A A51U gave a self-cleavage of 0.166. For C24U A59C, the self-cleavage was 0.281. C24U A59G gave a self-cleavage of 0.866. For C24U U64A, the self-cleavage was 0.42. C24U U64C showed a self-cleavage of 0.531. Work on C24G U69C yielded a self-cleavage of 0.739. Variant C24U G25C has a self-cleavage of 0.105. Variant C24U G25A has a self-cleavage of 0.212. Variant G25A A59C has a self-cleavage of 0.157. G25A A59G gave a self-cleavage of 0.208. For G25A A59U, the self-cleavage was 0.17. With C24G U62A the self-cleavage was 0.27. Variant C24G U62G has a self-cleavage of 0.203.
